Test results as given in the RNAGym collection of RNA variant scans (doi:10.7554/elife.80360).

B1: HDV Ribozyme (parent)
chain: GGCCGGCAUGGUCCCAGCCUCCUCGCUGGCGCCGGCUGGGCAACAUUCCGAGGGGACCGUCCCCUCGGUAAUGGCGAAUGGGACCCA

Variants of: B1
Assay: self-cleavage, relative activity (ratio to wild type); higher = more cleavage; co-transcriptional

Compared with C49U C57A, U46C U65A is lower in self-cleavage: 1.07 for the first, 0.853 for the second.

Compared with C48A C62A, C48U G67A is lower in self-cleavage: 0.878 for the first, 0.818 for the second.

Going from U47C A77G to U46G G74U, the self-cleavage falls from 0.612 to 0.529.

First: U47A C62G
Second: C49U A78C
The self-cleavage of the first is higher: 0.54 for the first, 0.188 for the second.

Compared with G50A A78C, C48U G53C is higher in self-cleavage: 0.138 for the first, 0.997 for the second.

First: U47G G52U
Second: U47A A56G
The self-cleavage of the first is lower: 0.877 for the first, 0.965 for the second.

Compared with C49U G67C, C49U A51G is lower in self-cleavage: 1.1 for the first, 1.01 for the second.

Compared with C49A G54U, C49A G54A is lower in self-cleavage: 0.734 for the first, 0.589 for the second.

Going from U46G C75G to U46G C75A, the self-cleavage rises from 0.0639 to 0.208.

Going from U47A G53A to U46G G80A, the self-cleavage falls from 1.22 to 0.0811.

Compared with C49G C66G, C49G C86G is lower in self-cleavage: 0.665 for the first, 0.587 for the second.

Going from U46G G73C to C49G C57U, the self-cleavage rises from 0.499 to 0.945.

Compared with U47G C57U, C48A C58U is higher in self-cleavage: 0.985 for the first, 1.11 for the second.

First: C49G U65C
Second: U46C U47C
The self-cleavage of the first is lower: 0.675 for the first, 0.743 for the second.

Going from U46C U47A to C48G C62U, the self-cleavage falls from 1.08 to 0.746.

First: C48G C62G
Second: C48G C62A
The self-cleavage of the first is lower: 0.269 for the first, 0.35 for the second.

First: C49U G52U
Second: U46G C58A
The self-cleavage of the first is higher: 0.687 for the first, 0.639 for the second.

Compared with U46G C58U, C49G A78G is lower in self-cleavage: 0.532 for the first, 0.266 for the second.

First: U46G U72G
Second: C49A U60C
The self-cleavage of the first is lower: 0.623 for the first, 0.78 for the second.

Compared with U46G C62G, G50A A71C is higher in self-cleavage: 0.0755 for the first, 0.633 for the second.

First: C48G U72C
Second: C49G C84G
The self-cleavage of the first is higher: 0.449 for the first, 0.297 for the second.

Going from C49G C84A to U47C C84G, the self-cleavage falls from 0.652 to 0.604.

First: U47C C84U
Second: C49G A83U
The self-cleavage of the first is higher: 0.475 for the first, 0.35 for the second.

Compared with C48U G80A, C48U G80C is lower in self-cleavage: 0.297 for the first, 0.243 for the second.

Compared with U47G G59U, U47G G59A is higher in self-cleavage: 1.12 for the first, 1.14 for the second.

First: U47C G81C
Second: C48G C61G
The self-cleavage of the first is lower: 0.151 for the first, 1.06 for the second.

Going from U47A C86G to U47A C86A, the self-cleavage rises from 0.733 to 1.04.

First: U47A C86U
Second: C48G C64G
The self-cleavage of the first is higher: 0.88 for the first, 0.266 for the second.

First: C48G C64U
Second: C49A G67U
The self-cleavage of the first is lower: 0.85 for the first, 0.945 for the second.

First: U47G G50U
Second: U47A C49U
The self-cleavage of the first is lower: 0.831 for the first, 0.972 for the second.

Going from C48U U69C to C48U U69A, the self-cleavage falls from 1.07 to 1.04.

Compared with C49U A77C, C49U A83C is higher in self-cleavage: 0.469 for the first, 0.615 for the second.

First: C49U A83G
Second: U46C G55U
The self-cleavage of the first is higher: 0.883 for the first, 0.831 for the second.

Going from C49A G81C to C49A G81A, the self-cleavage rises from 0.189 to 0.242.

Compared with U47A A71G, U47A U69G is higher in self-cleavage: 1.03 for the first, 1.13 for the second.

First: U47A U69A
Second: U46C G81U
The self-cleavage of the first is higher: 1.02 for the first, 0.302 for the second.

Going from U47A G50U to U47A G50C, the self-cleavage falls from 1.18 to 0.855.

First: C48G G55C
Second: C48G G55U
The self-cleavage of the first is lower: 0.851 for the first, 0.972 for the second.

First: U46C G68C
Second: C48A G82C
The self-cleavage of the first is higher: 0.739 for the first, 0.35 for the second.

First: C48G G67A
Second: C48U A71G
The self-cleavage of the first is lower: 0.91 for the first, 1.03 for the second.

Going from C49G A70G to U46G U79C, the self-cleavage falls from 0.733 to 0.0519.

Compared with U46G U79G, U47C C66A is higher in self-cleavage: 0.787 for the first, 0.875 for the second.

Compared with C48A A71U, C48A A71C is lower in self-cleavage: 0.867 for the first, 0.688 for the second.

First: U47C C75A
Second: U47C A70C
The self-cleavage of the first is lower: 0.214 for the first, 0.739 for the second.

Compared with C48U A78C, C48G A78G is higher in self-cleavage: 0.115 for the first, 0.86 for the second.

First: C48G A78C
Second: C48A C61A
The self-cleavage of the first is lower: 0.199 for the first, 1.02 for the second.

First: C48G G68C
Second: C48U U60C
The self-cleavage of the first is lower: 1.14 for the first, 1.27 for the second.

Going from C48U G59A to C48G U79A, the self-cleavage falls from 1.06 to 0.911.

Compared with U47G C58U, C48G C75G is lower in self-cleavage: 0.942 for the first, 0.0639 for the second.

First: U46G G59C
Second: U47C C64G
The self-cleavage of the first is higher: 0.831 for the first, 0.511 for the second.

Going from U47C C64A to U46G C48G, the self-cleavage falls from 0.567 to 0.475.

Compared with U47A C84U, U47A C84G is higher in self-cleavage: 0.735 for the first, 0.831 for the second.

First: U47A C63G
Second: U47A C63A
The self-cleavage of the first is lower: 0.653 for the first, 0.96 for the second.

Compared with U46C G67A, C49A C57A is higher in self-cleavage: 0.671 for the first, 0.875 for the second.

Compared with U47C G80U, C48G G81C is lower in self-cleavage: 0.29 for the first, 0.185 for the second.

First: C48G G81A
Second: U46G G82A
The self-cleavage of the first is higher: 0.489 for the first, 0.161 for the second.

Going from C48A A56C to C49U C85A, the self-cleavage falls from 1.18 to 1.17.

Compared with C49U U65C, C49A A71U is lower in self-cleavage: 0.902 for the first, 0.849 for the second.

Compared with U46C G76U, C48U A70C is lower in self-cleavage: 1.23 for the first, 0.649 for the second.

Going from U47C G68A to U47C G68U, the self-cleavage falls from 0.867 to 0.462.

First: U46G G67A
Second: C49G G50U
The self-cleavage of the first is higher: 0.527 for the first, 0.47 for the second.

Going from U47G U65C to U47G U65G, the self-cleavage rises from 0.923 to 0.95.

Going from U46G A87C to U46G A87U, the self-cleavage falls from 0.966 to 0.67.

First: C49A A83G
Second: C49A A70C
The self-cleavage of the first is lower: 0.546 for the first, 0.831 for the second.

Compared with C49U G53U, C49A U65C is lower in self-cleavage: 1.02 for the first, 0.923 for the second.

First: C49A U65G
Second: C48A C66U
The self-cleavage of the first is lower: 0.539 for the first, 0.988 for the second.

Going from C48A C66A to C48U G82C, the self-cleavage falls from 0.92 to 0.196.

Going from C49G A77C to C49G U79C, the self-cleavage rises from 0.119 to 0.631.

First: U47A G59C
Second: C49G G74A
The self-cleavage of the first is higher: 1.11 for the first, 0.132 for the second.

Going from C48G C58U to C48G C58G, the self-cleavage rises from 0.617 to 1.11.

C48U C58A and C48U C58G are the same in self-cleavage: 1.06 for the first, 1.06 for the second.

Going from C49A C62A to C49A C62U, the self-cleavage rises from 0.81 to 0.933.

First: C49A G76C
Second: C49U C75A
The self-cleavage of the first is higher: 1.22 for the first, 0.196 for the second.

First: C48A G54U
Second: C48A G54A
The self-cleavage of the first is lower: 0.975 for the first, 1.06 for the second.

Compared with C48A G54C, U46G G52A is lower in self-cleavage: 1.17 for the first, 0.297 for the second.

Compared with C49A C66A, U46C G54A is lower in self-cleavage: 0.786 for the first, 0.519 for the second.

First: C48G G74C
Second: C48G G74A
The self-cleavage of the first is lower: 0.0755 for the first, 0.305 for the second.

Going from U47A U72G to U47A U72A, the self-cleavage rises from 0.665 to 0.748.

First: U47C C63U
Second: C48U G55A
The self-cleavage of the first is higher: 1.07 for the first, 0.75 for the second.

Compared with U47G A77G, C48U G74A is lower in self-cleavage: 0.923 for the first, 0.517 for the second.

Going from C48U C61U to U47G C62G, the self-cleavage falls from 0.856 to 0.534.

Compared with U47G C62A, C48U U72A is lower in self-cleavage: 1.02 for the first, 0.855 for the second.

First: C48U U72C
Second: C49G A56C
The self-cleavage of the first is lower: 0.554 for the first, 0.785 for the second.

With U47C A78U the self-cleavage was 0.277.
